For data set [1], the system named is HeLa Kyoto. As to the kind of experiment: solubility in G1/S (NP-40 vs SDS abundance) (log2 ratio); higher = more soluble. The following applies: cell cycle stage: G1/S.
Data set [2] relates to HeLa Kyoto. As to the kind of experiment: melting temperature (median over replicates), in situ; higher = more thermally stable.
Data set [3] deals with HeLa Kyoto. The data set is described as follows: solubility change mitosis vs G1/S (difference of NP-40 vs SDS log2 ratios) (log2 ratio difference); higher = more soluble in mitosis.
For data set [4], the system named is HeLa Kyoto. The data set is described as follows: thermal stability score vs G1/S (z-score of summed log2 fold changes over temperatures); higher = more thermally stable than in G1/S.
Setting [5] is: cell cycle stage: early G1 (4.5 h after nocodazole release).

These results are taken from the supplement of paper PMC5998384.
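Wherever melting temperature (median over replicates), in situ is given: HeLa Kyoto cells synchronized by double thymidine or nocodazole block, proteins quantified by TMT10plex mass spectrometry, three independent biological replicates.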
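Wherever solubility change mitosis vs G1/S (difference of NP-40 vs SDS log2 ratios) is given: synchronized HeLa Kyoto cells (double thymidine block for G1/S, nocodazole release for mitosis), protein amounts in NP-40 versus SDS lysates quantified by mass spectrometry, three biological replicates.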
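Wherever solubility in G1/S (NP-40 vs SDS abundance) is given: HeLa Kyoto cells arrested at G1/S by double thymidine block, proteins quantified by TMT10plex mass spectrometry in mild NP-40 versus SDS extracts, three biological replicates.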
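Wherever thermal stability score vs G1/S (z-score of summed log2 fold changes over temperatures) is given: synchronized HeLa Kyoto cells, proteins quantified by TMT10plex mass spectrometry, three biological replicates, mitosis taken 0.5 h after nocodazole release, G1/S directly after double thymidine block.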

In the case of “MADAEVIILPKKHKKKKERKSLPEEDVAEIQHAEEFLIKPESKVAKLDTSQWPLLLKNFDKLNVRTTHYTPLACGSNPLKREIGDYIRTGFINLDKPSNPSSHEVVAWIRRILRVEKTGHSGTLDPKVTGCLIVCIERATRLVKSQQSAGKEYVGIVRLHNAIEGGTQLSRALETLTGALFQRPPLIAAVKRQLRVRTIYESKMIEYDPERRLGIFWVSCEAGTYIRTLCVHLGLLLGVGGQMQELRRVRSGVMSEKDHMVTMHDVLDAQWLYDNHKDESYLRRVVYPLEKLLTSHKRLVMKDSAVNAICYGAKIMLPGVLRYEDGIEVNQEIVVITTKGEAICMAIALMTTAVISTCDHGIVAKIKRVIMERDTYPRKWGLGPKASQKKLMIKQGLLDKHGKPTDSTPATWKQEYVDYSESAKKEVVAEVVKAPQVVAEAAKTAKRKRESESESDETPPAAPQLIKKEKKKSKKDKKAKAGLESGAEPGDGDSDTTKKKKKKKKAKEVELVSE [DKC1]”, the “solubility in G1/S (log2)” value in the data set on HeLa Kyoto [1] is -1.41. Moreover, the melting temperature worked out at 55.6 °C with HeLa Kyoto [2] (cell cycle stage: G1/S) and 53.2 °C in the data set on HeLa Kyoto [2] (cell cycle stage: mitosis). The “solubility change mitosis (log2)” value in the data set on HeLa Kyoto [3] stood at 0.816. Besides, the results for the thermal stability score in the data set with HeLa Kyoto [4] (setting [5]) and with HeLa Kyoto [4] (cell cycle stage: mitosis) were -3.35 and -5.27, respectively.

With “MADAGIRRVVPSDLYPLVLGFLRDNQLSEVANKFAKATGATQQDANASSLLDIYSFWLKSAKVPERKLQANGPVAKKAKKKASSSDSEDSSEEEEEVQGPPAKKAAVPAKRVGLPPGKAAAKASESSSSEESSDDDDEEDQKKQPVQKGVKPQAKAAKAPPKKAKSSDSDSDSSSEDEPPKNQKPKITPVTVKAQTKAPPKPARAAPKIANGKAASSSSSSSSSSSSDDSEEEKAAATPKKTVPKKQVVAKAPVKAATTPTRKSSSSEDSSSDEEEEQKKPMKNKPGPYSSVPPPSAPPPKKSLGTQPPKKAVEKQQPVESSEDSSDESDSSSEEEKKPPTKAVVSKATTKPPPAKKAAESSSDSSDSDSSEDDEAPSKPAGTTKNSSNKPAVTTKSPAVKPAAAPKQPVGGGQKLLTRKADSSSSEEESSSSEEEKTKKMVATTKPKATAKAALSLPAKQAPQGSRDSSSDSDSSSSEEEEEKTSKSAVKKKPQKVAGGAAPSKPASAKKGKAESSNSSSSDDSSEEEEEKLKGKGSPRPQAPKANGTSALTAQNGKAAKNSEEEEEEKKKAAVVVSKSGSLKKRKQNEAAKEAETPQAKKIKLQTPNTFPKRKKGEKRASSPFRRVREEEIEVDSRVADNSFDAKRGAAGDWGERANQVLKFTKGKSFRHEKTKKKRGSYRGGSISVQVNSIKFDSE [NOLC1]”, the “solubility in G1/S (log2)” value in the data set on HeLa Kyoto [1] was -0.953. The melting temperature was determined as 59.5 °C in the data set with HeLa Kyoto [2] (cell cycle stage: G1/S) and 57 °C in the data set on HeLa Kyoto [2] (cell cycle stage: mitosis). In the data set on HeLa Kyoto [3], the “solubility change mitosis (log2)” value amounted to 1.11. The thermal stability score with HeLa Kyoto [4] (setting [5]) was -2.83; in the data set on HeLa Kyoto [4] (cell cycle stage: mitosis), -4.21.

As for “MADDDVLFEDVYELCEVIGKGPFSVVRRCINRETGQQFAVKIVDVAKFTSSPGLSTEDLKREASICHMLKHPHIVELLETYSSDGMLYMVFEFMDGADLCFEIVKRADAGFVYSEAVASHYMRQILEALRYCHDNNIIHRDVKPHCVLLASKENSAPVKLGGFGVAIQLGESGLVAGGRVGTPHFMAPEVVKREPYGKPVDVWGCGVILFILLSGCLPFYGTKERLFEGIIKGKYKMNPRQWSHISESAKDLVRRMLMLDPAERITVYEALNHPWLKERDRYAYKIHLPETVEQLRKFNARRKLKGAVLAAVSSHKFNSFYGDPPEELPDFSEDPTSSGLLAAERAVSQVLDSLEEIHALTDCSEKDLDFLHSVFQDQHLHTLLDLYDKINTKSSPQIRNPPSDAVQRAKEVLEEISCYPENNDAKELKRILTQPHFMALLQTHDVVAHEVYSDEALRVTPPPTSPYLNGDSPESANGDMDMENVTRVRLVQFQKNTDEPMGITLKMNELNHCIVARIMHGGMIHRQGTLHVGDEIREINGISVANQTVEQLQKMLREMRGSITFKIVPSYRTQSSSCERDSPSTSRQSPANGHSSTNNSVSDLPSTTQPKGRQIYVRAQFEYDPAKDDLIPCKEAGIRFRVGDIIQIISKDDHNWWQGKLENSKNGTAGLIPSPELQEWRVACIAMEKTKQEQQASCTWFGKKKKQYKDKYLAKHNAVFDQLDLVTYEEVVKLPAFKRKTLVLLGAHGVGRRHIKNTLITKHPDRFAYPIPHTTRPPKKDEENGKNYYFVSHDQMMQDISNNEYLEYGSHEDAMYGTKLETIRKIHEQGLIAILDVEPQALKVLRTAEFAPFVVFIAAPTITPGLNEDESLQRLQKESDILQRTYAHYFDLTIINNEIDETIRHLEEAVELVCTAPQWVPVSWVY [CASK]”, in the data set on HeLa Kyoto [1], the “solubility in G1/S (log2)” value was -0.129. The melting temperature was found to be 52.1 °C in the data set on HeLa Kyoto [2] (cell cycle stage: G1/S) and 51.9 °C with HeLa Kyoto [2] (cell cycle stage: mitosis). The “solubility change mitosis (log2)” value with HeLa Kyoto [3] is -0.0742. The values for the thermal stability score with HeLa Kyoto [4] (setting [5]) and in the data set on HeLa Kyoto [4] (cell cycle stage: mitosis) were -0.366 and -0.0785, respectively.

On to “MADDLGDEWWENQPTGAGSSPEASDGEGEGDTEVMQQETVPVPVPSEKTKQPKECFLIQPKERKENTTKTRKRRKKKITDVLAKSEPKPGLPEDLQKLMKDYYSSRRLVIELEELNLPDSCFLKANDLTHSLSSYLKEICPKWVKLRKNHSEKKSVLMLIICSSAVRALELIRSMTAFRGDGKVIKLFAKHIKVQAQVKLLEKRVVHLGVGTPGRIKELVKQGGLNLSPLKFLVFDWNWRDQKLRRMMDIPEIRKEVFELLEMGVLSLCKSESLKLGLF [CMSS1]”, for which the “solubility in G1/S (log2)” value with HeLa Kyoto [1] was -0.211. Also, the melting temperature in the data set with HeLa Kyoto [2] (cell cycle stage: G1/S) was found to be 49.9 °C; with HeLa Kyoto [2] (cell cycle stage: mitosis), 50.3 °C. Moreover, the “solubility change mitosis (log2)” value in the data set with HeLa Kyoto [3] was 0.103. The thermal stability score was 1.03 with HeLa Kyoto [4] (setting [5]) and 0.589 in the data set with HeLa Kyoto [4] (cell cycle stage: mitosis).
